As usually defined, the koff is the rate constant with which the complex falls apart. The kon is a measure of how fast the partners come together. For orientation: Kd means a measure of binding affinity in units of concentration.

Consider 5 molecules from US20180002415A1 (Chugai, published 2018).

Test [1] deals with T1, recombinant human C5 (human, UniProt P01031 20-1676).
T1 construct: Also used for the C5 of normal human serum in the functional rows; also called hC5; rhC5
Description: SPR (Biacore), 37C, association and dissociation at pH 5.8, Ab on ProA/G. On the technique in general: Surface plasmon resonance follows binding to a sensor surface in real time, without labels.
Description: (§1) The kinetic parameters of anti-C5 antibodies against recombinant human C5 were assessed at 37° C. using BIACORE® T200 instrument (GE Healthcare) at three different conditions; (1) both association and dissociation were at pH7.4, (2) both association and dissociation were at pH5.8, and (3) association was at pH7.4 but dissociation was at pH5.8. ProA/G (Pierce) was immobilized onto a CM1 sensorchip using amine coupling kit (GE Healthcare) according to the recommended settings by GE Healthcare. Antibodies and analytes for condition (1) and (3) were diluted in ACES pH7.4 buffer (20 mM ACES, 150 mM NaCl, 1.2 mM CaCl₂, 0.05% Tween 20, 0.005% NaN₃) and for condition (2) they were diluted in ACES pH5.8 buffer (20 mM ACES, 150 mM NaCl, 1.2 mM CaCl₂, 0.05% Tween 20, 0.005% NaN₃). […] The surface was regenerated using 25 mM NaOH. Kinetic parameters at condition (1) and (2) were determined by fitting the sensorgrams with a 1:1 binding model and the dissociation rate at condition (3) was determined by fitting the sensorgrams with a 1:1 dissociation for MCK model using BIACORE® T200 Evaluation software, version 2.0 (GE Healthcare). pH dependency of all antibodies were shown as ratio of dissociation rate of condition (2) and (1).

Test [2] concerns the target T1, recombinant human C5. Description: SPR (Biacore), 37C, association at pH 7.4, dissociation at pH 5.8.
Description: as §1
The target in test [3] is T1, recombinant human C5. Description: SPR (Biacore), 37C, association and dissociation at pH 7.4, Ab on ProA/G.
Description: as §1
Test [4] concerns the target T1, recombinant human C5. Description: SPR (Biacore), ratio of dissociation rates of conditions (2) and (1).
Description: as §1
Test [5] deals with T2, C5 peptide 45-111 fused to GST-tag (human, UniProt P01031 45-111).
T2 construct: not shown: GST-tag (glutathione S-transferase); vector and linker not restated
Description: summary drawing of the binding reactions to C5 beta-chain fragments.

The next test deals with T3, 481-660.
T3 construct: Expressed in E. coli
T3 GST fusion polypeptide: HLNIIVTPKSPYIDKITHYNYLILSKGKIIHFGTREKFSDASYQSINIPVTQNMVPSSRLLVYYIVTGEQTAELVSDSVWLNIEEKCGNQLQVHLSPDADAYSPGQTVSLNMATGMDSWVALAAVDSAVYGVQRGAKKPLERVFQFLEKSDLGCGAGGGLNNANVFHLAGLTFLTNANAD
Described as above.

The target in test [6] is T4, C5 peptide 33-108 fused to GST-tag (human, UniProt P01031 33-108).
T4 construct: not shown: GST-tag (glutathione S-transferase); vector and linker not restated
The test is described as above.

The target in test [7] is T5, C5 peptide 45-124 fused to GST-tag (human, UniProt P01031 45-124).
T5 construct: not shown: GST-tag (glutathione S-transferase); vector and linker not restated
The test is described as above.

In test [8] the target is T6, C5 peptide 33-111 fused to GST-tag (human, UniProt P01031 33-111).
T6 construct: not shown: GST-tag (glutathione S-transferase); vector and linker not restated
Described as above.

Test [9] deals with T7, C5 peptide 52-124 fused to GST-tag (human, UniProt P01031 52-124).
T7 construct: not shown: GST-tag (glutathione S-transferase); vector and linker not restated
Described as above.

The target of test [10] is T8, recombinant cynomolgus monkey C5 (cynomolgus monkey, UniProt P01031 20-1676 (human entry), limits assumed).
T8 construct: also called cynoC5
T8 chain: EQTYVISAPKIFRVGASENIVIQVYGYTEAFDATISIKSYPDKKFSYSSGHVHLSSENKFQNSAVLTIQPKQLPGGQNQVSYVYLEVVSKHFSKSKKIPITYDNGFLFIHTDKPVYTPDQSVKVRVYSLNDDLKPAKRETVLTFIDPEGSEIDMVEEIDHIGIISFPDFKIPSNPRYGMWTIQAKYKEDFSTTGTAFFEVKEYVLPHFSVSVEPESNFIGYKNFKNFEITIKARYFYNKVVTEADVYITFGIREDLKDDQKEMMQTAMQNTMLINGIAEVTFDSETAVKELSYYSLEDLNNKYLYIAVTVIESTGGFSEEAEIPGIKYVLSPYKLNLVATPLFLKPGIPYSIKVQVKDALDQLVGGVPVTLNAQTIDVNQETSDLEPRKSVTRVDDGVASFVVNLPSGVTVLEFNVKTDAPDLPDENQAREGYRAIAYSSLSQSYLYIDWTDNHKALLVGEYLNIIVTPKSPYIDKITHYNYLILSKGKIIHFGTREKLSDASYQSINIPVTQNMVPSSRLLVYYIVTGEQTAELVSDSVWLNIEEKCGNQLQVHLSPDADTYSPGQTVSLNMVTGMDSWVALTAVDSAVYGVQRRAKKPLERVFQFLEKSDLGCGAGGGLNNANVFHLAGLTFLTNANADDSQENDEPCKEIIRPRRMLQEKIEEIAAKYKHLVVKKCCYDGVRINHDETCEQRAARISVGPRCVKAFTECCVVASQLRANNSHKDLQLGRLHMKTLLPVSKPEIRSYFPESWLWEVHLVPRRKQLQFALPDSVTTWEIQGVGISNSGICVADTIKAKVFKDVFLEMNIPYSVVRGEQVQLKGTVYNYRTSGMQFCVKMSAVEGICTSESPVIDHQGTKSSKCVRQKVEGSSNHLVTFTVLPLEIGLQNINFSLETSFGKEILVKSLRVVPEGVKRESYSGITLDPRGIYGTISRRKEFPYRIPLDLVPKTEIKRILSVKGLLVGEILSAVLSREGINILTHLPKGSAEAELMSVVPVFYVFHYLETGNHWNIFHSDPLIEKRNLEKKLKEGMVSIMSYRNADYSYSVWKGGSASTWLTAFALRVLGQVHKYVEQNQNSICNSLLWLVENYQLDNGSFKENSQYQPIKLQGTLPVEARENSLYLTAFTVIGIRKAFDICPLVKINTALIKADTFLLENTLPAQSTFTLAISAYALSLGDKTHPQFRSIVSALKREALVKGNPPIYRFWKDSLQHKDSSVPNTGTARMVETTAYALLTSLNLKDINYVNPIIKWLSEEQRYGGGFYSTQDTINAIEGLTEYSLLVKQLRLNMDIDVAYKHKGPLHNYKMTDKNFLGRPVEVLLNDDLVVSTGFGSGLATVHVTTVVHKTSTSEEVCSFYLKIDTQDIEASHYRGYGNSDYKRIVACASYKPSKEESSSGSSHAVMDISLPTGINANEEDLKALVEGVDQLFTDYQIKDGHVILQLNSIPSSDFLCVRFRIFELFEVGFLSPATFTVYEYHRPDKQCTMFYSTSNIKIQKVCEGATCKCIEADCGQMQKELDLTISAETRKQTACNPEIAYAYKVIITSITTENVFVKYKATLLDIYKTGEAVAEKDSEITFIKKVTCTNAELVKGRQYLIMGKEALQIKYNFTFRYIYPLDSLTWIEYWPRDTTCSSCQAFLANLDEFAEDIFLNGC
Description: SPR (Biacore), 37C, pH 7.4, Ab captured on ProA/G.
Description: To observe the cross-reactivity of anti-C5 antibodies against human C5 (hC5) and cynomolgus monkey C5 (cynoC5), BIACORE® kinetics analysis was performed.

Test [11] addresses T9, 321-500.
T9 construct: Expressed in E. coli
T9 GST fusion polypeptide: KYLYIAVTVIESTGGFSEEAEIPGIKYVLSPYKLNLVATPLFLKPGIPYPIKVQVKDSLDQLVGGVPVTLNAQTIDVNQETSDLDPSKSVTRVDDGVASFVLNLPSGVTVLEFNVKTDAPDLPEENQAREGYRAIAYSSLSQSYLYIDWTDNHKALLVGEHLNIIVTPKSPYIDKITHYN
Description: Western blot of E. coli lysates expressing GST-fused C5 beta-chain fragments.
Description: (§2) Anti-C5 monoclonal antibodies (MAbs) were tested for binding to C5 β-chain-derived peptides in Western blot analysis. […] The E. coli samples were harvested after incubation with 1 mM Isopropyl β-D-1-thiogalactopyranoside (IPTG) for 5 hours at 37° C., and centrifuged at 20000×g for 1 min to obtain pellets.

The target of a further test is T10, 161-340.
T10 construct: Expressed in E. coli
T10 GST fusion polypeptide: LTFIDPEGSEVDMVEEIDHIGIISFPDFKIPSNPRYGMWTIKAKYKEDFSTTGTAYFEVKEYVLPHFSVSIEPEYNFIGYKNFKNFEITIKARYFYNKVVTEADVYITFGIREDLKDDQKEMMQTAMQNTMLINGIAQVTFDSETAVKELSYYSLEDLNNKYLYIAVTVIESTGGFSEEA
Described as above.

Test [12] deals with recombinant MG1-MG2 domain of human C5 β-chain (human, UniProt P01031 20-225). Description: SPR (BIACORE T200, 37 C, pH7.4): antibody captured by ProA/G, MG1-MG2 domain injected (20 and 40 nM per paragraph 378; concentration of the curves not printed on the sheet).
Description: ProA/G (Pierce) was immobilized onto a CM4 sensorchip using amine coupling kit (GE Healthcare) according to the recommended settings by GE Healthcare. Antibodies and analytes were diluted into the respective running buffers, ACES pH7.4 and pH5.8 (20 mM ACES, 150 mM NaCl, 1.2 mM CaCl₂, 0.05% Tween 20, 0.005% NaN₃). […] The surface was regenerated using 25 mM NaOH. Kinetic parameters at both pH conditions were determined by fitting the sensorgrams with 1:1 binding model using BIACORE® T200 Evaluation software, version 2.0 (GE Healthcare).
The MG1-MG2 domain was injected at concentrations of 20 nM and 40 nM.
Test [13] concerns the target T9, 321-500. Description: summary drawing of the binding reactions to C5 beta-chain fragments.

T5 sequence (P01031 45-124): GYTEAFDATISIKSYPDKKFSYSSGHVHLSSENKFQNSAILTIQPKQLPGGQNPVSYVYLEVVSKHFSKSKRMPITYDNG
T2 sequence (P01031 45-111): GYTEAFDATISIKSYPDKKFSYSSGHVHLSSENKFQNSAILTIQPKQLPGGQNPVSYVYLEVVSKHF
T6 sequence (P01031 33-111): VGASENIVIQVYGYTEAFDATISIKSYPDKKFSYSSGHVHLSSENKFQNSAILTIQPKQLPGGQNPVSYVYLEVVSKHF
T4 sequence (P01031 33-108): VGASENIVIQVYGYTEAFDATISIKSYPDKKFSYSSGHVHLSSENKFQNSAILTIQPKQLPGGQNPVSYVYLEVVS
T7 sequence (P01031 52-124): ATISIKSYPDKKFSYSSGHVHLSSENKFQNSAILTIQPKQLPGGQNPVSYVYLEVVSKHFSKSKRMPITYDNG
Description for 161-340: as §2

B1: 305LO20-SG422 (antibody, human IgG4)
heavy: QVQLVESGGGLVQPGGSLRLSCAASGFTVHSSYYMAWVRQAPGKGLEWVGAIFTGSGAEYKAEWAKGRVTISKDTSKNQVVLTMTNMDPVDTATYYCASDAGYDYPTHAMHYWGQGTLVTVSSASTKGPSVFPLAPCSRSTSGGTAALGCLVKDYFPEPVTVSWNSGALTSGVHTFPAVLQSSGLYSLSSVVTVPSSSLGTKTYTCNVDHKPSNTKVDKRVESKYGPPCPPCPAPEFRRGPKVFLFPPKPKDTLMISRTPEVTCVVVDVSHEDPEVKFNWYVDGVEVHNAKTKPREEQYNSTYRVVSVLTVLHQDWLNGKEYKCKVSNKGLPSSIEKTISKAKGQPREPQVYTLPPSREEMTKNQVSLTCLVKGFYPSDIAVEWESNGQPENNYKTTPPVLDSDGSFFLYSKLTVDKSRWQQGNVFSCSVLHEALHAHYTRKELSLSP
light: DIQMTQSPSSLSASVGDRVTITCRASQGISSSLAWYQQKPGQAPRLLIYGASETESGVPSRFSGSGSGTDFTLTISSLQPEDFATYYCQNTKVGSSYGNTFGGGTKVEIKRTVAAPSVFIFPPSDEQLKSGTASVVCLLNNFYPREAKVQWKVDNALQSGNSQESVTEQDSKDSTYSLSSTLTLSKADYEKHKVYACEVTHQGLSSPVTKSFNRGEC
notes: Modified human IgG4 CH SG422, human CL SK1
As for B1, the koff with recombinant human C5 [1] was 0.00815 s⁻¹; in the test with recombinant human C5 [2], 0.0155 s⁻¹; with recombinant human C5 [3], 0.00047 s⁻¹. Besides, the kon with recombinant human C5 [1] came out at 136000 M⁻¹ s⁻¹; with recombinant human C5 [3], 1.35e+06 M⁻¹ s⁻¹. Further, the “pH dependency (kd pH 5.8 / kd pH 7.4)” value in the test with recombinant human C5 [4] came to 17.3 fold.

B2: CFA0675 (antibody, V domains shown)
VH: QSVEESGGRLVTPGTPLTLTCTVSGFSLSTYAMGWVRQAPGKGLEWIGTIDTGDNSFYANWAKGRFTISRTSTTVDLKITSPTAEDTATYFCARNDGSVYNLFNLWGPGTLVTVSS
VL: DVVMTQTPASVSAAVGGTVTIKCQASENIYSALSWYQQKPGLRPRLLIYYASTLASGVPSRFKGSRSGTEFTLTISDLECADAASYYCQQYYDINSVDNTFGGGTKVVVE
notes: Chimeric, rabbit V regions; also called CFA0675-F760G4
For the molecule B2, the binding result (in [5]; with 481-660; in [6]; in test [7]; in [8]; in test [9]) was “no binding” throughout. Also, the binding result with 321-500 [11] and with 161-340 was “no binding” in each case. In addition, in test [10], the Kd was 1.29 nM.

B3: eculizumab-F760G4 (antibody, human IgG4 S228P, kappa)
heavy: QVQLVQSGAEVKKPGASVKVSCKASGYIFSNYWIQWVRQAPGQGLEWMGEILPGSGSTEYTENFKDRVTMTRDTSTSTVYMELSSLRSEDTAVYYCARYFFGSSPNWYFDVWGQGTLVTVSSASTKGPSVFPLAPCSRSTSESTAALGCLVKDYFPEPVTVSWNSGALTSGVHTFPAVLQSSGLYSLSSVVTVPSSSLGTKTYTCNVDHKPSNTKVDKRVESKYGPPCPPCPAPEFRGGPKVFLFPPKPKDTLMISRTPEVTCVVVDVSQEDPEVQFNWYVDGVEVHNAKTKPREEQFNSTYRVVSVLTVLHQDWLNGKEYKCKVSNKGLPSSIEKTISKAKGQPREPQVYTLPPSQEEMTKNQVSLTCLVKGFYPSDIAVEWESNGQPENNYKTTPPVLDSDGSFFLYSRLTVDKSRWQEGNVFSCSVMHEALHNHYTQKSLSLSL
light: DIQMTQSPSSLSASVGDRVTITCGASENIYGALNWYQQKPGKAPKLLIYGATNLADGVPSRFSGSGSGTDFTLTISSLQPEDFATYYCQNVLNTPLTFGQGTKVEIKRTVAAPSVFIFPPSDEQLKSGTASVVCLLNNFYPREAKVQWKVDNALQSGNSQESVTEQDSKDSTYSLSSTLTLSKADYEKHKVYACEVTHQGLSSPVTKSFNRGEC
notes: EcuH VH fused to modified human IgG4 CH F760G4; EcuL VL fused to k0 light chain constant region
For B3, the binding result in [12] was “no binding (tested: 40 nM (not printed on the sheet))”.

B4: 305LO23-SG115 (antibody, human IgG1, V domains shown)
VH: QVQLVESGGGLVQPGGSLRLSCAASGFTVHSSYYMAWVRQAPGKGLEWVSGIFTGSGATYKAEWAKGRVTISKDTSKNQVVLTMTNMDPVDTATYYCASDAGYDYPTHAMHYWGQGTLVTVSS
VL: DIQMTQSPSSLSASVGDRVTITCRASQGISSSLAWYQQKPGQAPRLLIYGASTTQSGVPSRFSGSGSGTDFTLTISSLQPEDFATYYCQNTKVGSSYGNTFGGGTKVEIKR
notes: Modified human IgG1 CH SG115, human CL SK1
On to B4, for which the koff with recombinant human C5 [1] was found to be 0.00855 s⁻¹; with recombinant human C5 [2] it was 0.0173 s⁻¹; with recombinant human C5 [3], 0.000423 s⁻¹. Also, the kon with recombinant human C5 [1] came to 133000 M⁻¹ s⁻¹; with recombinant human C5 [3] it was 1.53e+06 M⁻¹ s⁻¹. Also, the “pH dependency (kd pH 5.8 / kd pH 7.4)” value with recombinant human C5 [4] was determined as 20.2 fold.

B5: CFA0307 (antibody, V domains shown)
VH: QSLEESGGGLVKPGASLTLTCKASGIDFSNFYYICWVRQAPGKGLDLIACIYTVSGYTYYASWAKGRLTISKTSSTTVTLQMTSLTAADTATYFCARDLHAGITNLWGPGTLVTVSS
VL: AIEMTQTPFSVSAAVGGTVTIKCQASQNIYSNLAWYQQKPGQRPKLLIYGASNLESGVPSRFKGSGSGTEYTLTISDLECADAATYYCLQGYSYSNVDDAFGGGTEVVVK
notes: Chimeric, rabbit V regions; also called CFA0307-F760G4
For B5, the binding result (in [5]; with 481-660; in test [6]; with 321-500 [13]; in test [7]; in test [8]) was “no binding” in each case. Further, the binding result (in test [9]; with 161-340) was “no binding” throughout. Further, the Kd in [10] came to 7.68 nM.
